Our source for the EC50 values is patent publication US20190276542A1 (QILU PUGET SOUND BIOTHERAPEUTICS, published 2019).

The target of assay [1] is T1, human PD1 expressed on a cell surface (human, UniProt Q15116 25-288).
T1 construct: whole, on cells; also called hPD1
Nature of the assay: flow cytometry on OKT3-activated human T cells, CD4- cells. The procedure:
(§1) The following experiment tested whether the selected anti-hPD1 antibodies can bind to native PD1 expressed on the surface of activated T cells. Human PBMCs were pre-activated with OKT3 (an anti-CD3 antibody) at a concentration of 1 μg/ml. After three days, the PBMCs, which were mostly activated T cells at this time, were distributed into a 96 well microtiter plate using 0.1×10⁶ cells/well. […] The antibody bound to CD4⁺ T cells and CD4⁻ T cells (which were predominately CD8⁺ T cells) was detected using anti-hlgG-FITC and an anti-CD4 antibody labeled with allophycocyanin (anti-CD4-APC).
(§2) The samples were analyzed by flow cytometry (FACScalibur, BD), and binding was reported as an MFI. EC₅₀'s for binding were calculated using GraphPad Prism software.

Assay [2] addresses T1, human PD1 expressed on a cell surface. Nature of the assay: flow cytometry on OKT3-activated human T cells, CD4+ cells. The procedure:
as §1, §2

As usually defined, the EC50 is the concentration at which the effect is half-maximal.

T1 sequence (Q15116 25-288): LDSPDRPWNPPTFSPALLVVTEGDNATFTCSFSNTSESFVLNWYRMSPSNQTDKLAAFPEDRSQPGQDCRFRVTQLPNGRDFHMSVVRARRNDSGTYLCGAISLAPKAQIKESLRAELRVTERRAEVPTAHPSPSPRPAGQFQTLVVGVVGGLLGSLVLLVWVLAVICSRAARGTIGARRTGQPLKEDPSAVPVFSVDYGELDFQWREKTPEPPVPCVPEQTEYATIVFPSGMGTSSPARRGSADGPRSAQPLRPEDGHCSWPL

B1: anti-hPD1 antibody #13 (antibody, human IgG4, V domains shown)
VH: QVQLVQSGAEVKKPGASVKVSCKASGYTFTSYWIHWVRQAPGQGLEWMGEIDPYDSYTNYNQKFKGRVTMTVDKSTNTVYMELSSLTSEDTAVYYCARPGLTYGGMDFWGQGTLVTVSS
VL: DIQMTQSPSSLSASVGDRVTITCKSSQSLLNSGNQKNYLAWYQQKPGKPPKLLIYGASTRDSGVPAKFSGSGSGTDFTLTISSLQPEDVATYYCQNDHYYPYTFGGGTKVEIK
notes: also called Anti-hPD1 #13
As for B1, the values for the EC50 in assay [1] and in assay [2] were 1.46 nM and 0.998 nM, respectively.

B2: anti-hPD1 antibody #12 (antibody, human IgG4, V domains shown)
VH: QVQLVQSGAEVKKPGASVKVSCKASGYTFTNYWMHWVRQAPGQGLEWMGEIDPFDSYTNYNQKFKGRVTMTIDTSTNTVYMELSSLRSEDTAVYYCARPGFTYGGMDFWGQGTLVTVSS
VL: DIVMTQSPDSLAVSLGERATISCRSSQSLLISGNQKNYLAWYQQKPGQPPKLLIYGASTRDSGVPDRFSGSGSGTDFTLTISSLQAEDVAVYYCQNNHYYPYTFGGGTKVEIK
notes: also called Anti-hPD1 #12
Turning to B2, the results for the EC50 in assay [1] and in assay [2] were 1.16 nM and 0.849 nM, respectively.

B3: anti-hPD1 antibody #15 (antibody, human IgG4, V domains shown)
VH: QVQLVQSGAEVKKPGASVKVSCKASGYTFTNYWMHWVRQAPGQGLEWMGEIDPYDSYTNYNQKFKGRVTMTRDTSTNTVYMELSSLRSEDTAVYYCARPGLTYGGMDFWGQGTLVTVSS
VL: DIQMTQSPSSLSASVGDRVTITCRSSQSLFNSGNQKNYLAWYQQKPGKPPKLLIYGASTRESGVPYRFSGSGSGTDFTLTISSLQPEDVATYYCQNDHYYPYTFGGGTKVEIK
notes: also called Anti-hPD1 #15
For B3, the EC50 amounted to 0.627 nM in assay [1] and 0.72 nM in assay [2].

B4: anti-hPD1 antibody #11 (antibody, human IgG4, V domains shown)
VH: QVQLVQSGAEVKKPGASVKVSCKASGYTFTSYWIHWVRQAPGQGLEWMGEIDPSDSYTNYNQKFKGRVTMTGDTSTNTVYMELSSLTSEDTAVYYCARPGYTYGGMDFWGQGTLVTVSS
VL: DIVMTQSPDSLAVSLGERATISCRSSQSLFISGNQKNYLAWYQQKPGQPPKLLIYGASTRDSGVPDRFSGSGSGTDFTLTISSLQAEDVAVYYCQNNHYYPYTFGGGTKVEIK
notes: also called Anti-hPD1 #11
On to B4, for which the concentration for a half-maximal effect (EC50) is 24.7 nM in assay [1] and 33.7 nM in assay [2].

B5: anti-hPD1 antibody #8 (antibody, human IgG4, V domains shown)
VH: QVQLVQSGAEVKKPGASVKVSCKASGYTFTNYWIHWVRQAPGQGLEWMGEIDPYDSYTNYNQKFKGRVTMTIDTSTSTVYMELSSLRSEDTAVYYCARPGNTYGGMDFWGQGTLVTVSS
VL: DIVMTQSPDSLAVSLGERATINCKSSQSLFISGNQKNYLAWYQQKPGQPPKLLIYGASTRDSGVPDRFSGSGSGTDFTLTISSLQAEDVAVYYCQNNHYYPYTFGGGTKVEIK
notes: also called Anti-hPD1 #8
With B5, the values for the EC50 in assay [1] and in assay [2] were 0.904 nM and 0.647 nM, respectively.
